Experimental data: the Immune Epitope Database (IEDB)

Legend:
HLA-B*15:01 [1] = test: IEDB peptide-MHC binding, purified MHC/competitive/fluorescence; filed as Kd, often an IC50 or EC50 that approximates it; ≥ and ≤ were set here for values at or beyond the usual limits of such assays; conditions: source organism: Bacillus cereus G9241
HLA-A*23:01 = test: IEDB peptide-MHC binding, purified MHC/competitive/radioactivity; filed as Kd, often an IC50 or EC50 that approximates it; ≥ and ≤ were set here for values at or beyond the usual limits of such assays
HLA-A*26:01 [2] = test: as above
HLA-A*29:02 = test: as above
HLA-A*24:02 [3] = test: as above
HLA-A*30:02 = test: as above
HLA-A*01:01 [4] = test: as above
HLA-B*44:02 [5] = test: as above
HLA-B*44:03 = test: as above; conditions: source organism: Dengue virus 1 Singapore/S275/1990
HLA-B*15:01 [6] = test: IEDB peptide-MHC binding, purified MHC/competitive/fluorescence; ≥ and ≤ were set here for values at or beyond the usual limits of such assays
HLA-A*24:02 [7] = test: as above
HLA-B*40:01 [8] = test: IEDB peptide-MHC binding, purified MHC/competitive/radioactivity; filed as Kd, often an IC50 or EC50 that approximates it; ≥ and ≤ were set here for values at or beyond the usual limits of such assays
HLA-A*02:01 [9] = test: IEDB peptide-MHC binding, purified MHC/competitive/fluorescence; ≥ and ≤ were set here for values at or beyond the usual limits of such assays
HLA-A*11:01 = test: IEDB peptide-MHC binding, purified MHC/direct/fluorescence; filed as Kd, often an IC50 or EC50 that approximates it; ≥ and ≤ were set here for values at or beyond the usual limits of such assays; conditions: source organism: Salmonella enterica
HLA-A*26:01 [10] = test: as above; conditions: source organism: Salmonella enterica
HLA-B*44:02 [11] = test: as above; conditions: source organism: Salmonella enterica
HLA-B*08:01 = test: as above; conditions: source organism: Salmonella enterica
HLA-B*58:01 = test: as above; conditions: source organism: Salmonella enterica
HLA-B*40:01 [12] = test: as above; conditions: source organism: Salmonella enterica
HLA-B*07:02 = test: as above; conditions: source organism: Salmonella enterica
HLA-A*02:01 [13] = test: as above; conditions: source organism: Salmonella enterica
HLA-B*27:05 = test: as above; conditions: source organism: Salmonella enterica
HLA-A*24:03 = test: as above; conditions: source organism: Salmonella enterica
HLA-A*69:01 = test: as above; conditions: source organism: Salmonella enterica
HLA-A*01:01 [14] = test: as above; conditions: source organism: Escherichia coli
HLA-A*31:01 = test: as above; conditions: source organism: Salmonella enterica
HLA-A*03:01 = test: as above; conditions: source organism: Salmonella enterica
HLA-B*15:01 [15] = test: as above; conditions: source organism: Salmonella enterica
[16] = source organism: Lassa virus Josiah
[17] = source organism: Mammarenavirus juninense
[18] = source organism: Vaccinia virus Copenhagen
[19] = source organism: Dengue virus 2 Jamaica/1409/1983
[20] = source organism: SARS coronavirus Tor2
[21] = source organism: Dengue virus 1 Brazil/97-11/1997
[22] = source organism: Vaccinia virus WR
[23] = source organism: Zaire ebolavirus

Work on RKIKAITSF yielded a Kd (HLA-B*15:01 [1]) of 1.88 µM.
In the case of RYYDGNIYDL, the Kd (HLA-A*23:01; source organism: Variola virus) is reported as 0.0135 µM, the Kd (HLA-A*26:01 [2]; source organism: Variola virus) is reported as ≥ 69.7 µM and the Kd (HLA-A*29:02; source organism: Variola virus) is reported as ≥ 61.8 µM. The Kd (HLA-A*24:02 [3]; source organism: Variola virus) was 0.0879 µM, the Kd (HLA-A*30:02; source organism: Variola virus) was 0.0152 µM and the Kd (HLA-A*01:01 [4]; source organism: Variola virus) was 2.61 µM.
SCDFNGGKI was tested, and the Kd (HLA-A*23:01; [16]) was ≥ 77.7 µM, the Kd (HLA-A*26:01 [2]; [16]) was ≥ 77.9 µM and the Kd (HLA-A*29:02; [16]) was ≥ 78.9 µM. The Kd (HLA-A*24:02 [3]; [16]) was ≥ 77.5 µM, the Kd (HLA-A*30:02; [16]) was ≥ 76.9 µM and the Kd (HLA-A*01:01 [4]; [16]) was ≥ 23.2 µM.
Work on SEMIIPKIY yielded a Kd (HLA-B*44:02 [5]; source organism: Dengue virus 1 Singapore/S275/1990) of 0.00861 µM and a Kd (HLA-B*44:03) of 0.0128 µM.
SMFLMTATL was tested, and the IC50 (HLA-B*15:01 [6]; source organism: Variola virus) was 1.12 µM.
With SMRSVQRNTV the Kd (HLA-A*23:01; [17]) was ≥ 70 µM, the Kd (HLA-A*26:01 [2]; [17]) was ≥ 69.7 µM and the Kd (HLA-A*29:02; [17]) was ≥ 71.4 µM. The Kd (HLA-A*24:02 [3]; [17]) was ≥ 70.3 µM, the Kd (HLA-A*30:02; [17]) was 7.86 µM and the Kd (HLA-A*01:01 [4]; [17]) was 2.99 µM.
For SQYANCSSI, the IC50 (HLA-A*24:02 [7]; [18]) was ≥ 82.7 µM and the IC50 (HLA-B*15:01 [6]; [18]) was 7.41 µM.
TEHGTTATI was tested, and the Kd (HLA-B*40:01 [8]; source organism: Dengue virus 1 Nauru/West Pac/1974) was 0.0571 µM.
TEIQMSSGNL was tested, and the Kd (HLA-B*40:01 [8]; [19]) was 0.00703 µM.
For TEWCCRSCTL, the Kd (HLA-B*40:01 [8]; [19]) was 0.00995 µM.
For TSTGNYNYKY, the Kd (HLA-A*23:01; [20]) was ≥ 70 µM, the Kd (HLA-A*26:01 [2]; [20]) was 1.26 µM and the Kd (HLA-A*29:02; [20]) was 0.294 µM. The Kd (HLA-A*24:02 [3]; [20]) was ≥ 70.3 µM, the Kd (HLA-A*30:02; [20]) was 0.0423 µM and the Kd (HLA-A*01:01 [4]; [20]) was 0.0965 µM.
Work on VEEQDANFV yielded a Kd (HLA-B*40:01 [8]; [21]) of 0.412 µM.
VFNNYMPYVF was tested, and the Kd (HLA-A*23:01; [20]) was 0.00832 µM, the Kd (HLA-A*26:01 [2]; [20]) was ≥ 21.6 µM and the Kd (HLA-A*29:02; [20]) was 0.00922 µM. For the same sequence, the Kd (HLA-A*24:02 [3]; [20]) was 0.0112 µM, the Kd (HLA-A*30:02; [20]) was 7.11 µM and the Kd (HLA-A*01:01 [4]; [20]) was ≥ 20.6 µM.
VGRVNPGTY gave an IC50 (HLA-A*24:02 [7]; source organism: Variola virus) of 5.45 µM and an IC50 (HLA-B*15:01 [6]; source organism: Variola virus) of 29.7 µM.
For VINRLGADL, the IC50 (HLA-A*02:01 [9]; [22]) was ≥ 76.6 µM and the IC50 (HLA-B*15:01 [6]; [22]) was ≥ 105 µM.
Work on VVANVIGLS yielded an IC50 (HLA-A*02:01 [9]; [18]) of 26.6 µM and an IC50 (HLA-B*15:01 [6]; [18]) of 46.9 µM.
With VVNYEAGEW the IC50 (HLA-A*24:02 [7]; [23]) was ≥ 75.5 µM and the IC50 (HLA-B*15:01 [6]; [23]) was ≥ 119 µM.
WEGGHDLTV was tested, and the Kd (HLA-B*40:01 [8]; source organism: Dengue virus 4 Philippines/H241/1956) was 1.85 µM.
WTDLYTSMS was tested, and the Kd (HLA-A*11:01) was ≥ 20 µM, the Kd (HLA-A*26:01 [10]) was ≥ 20 µM and the Kd (HLA-B*44:02 [11]) was ≥ 20 µM. The Kd (HLA-B*08:01) was ≥ 20 µM, the Kd (HLA-B*58:01) was ≥ 20 µM and the Kd (HLA-B*40:01 [12]) was ≥ 20 µM. For the same sequence, the Kd (HLA-B*07:02) was ≥ 20 µM, the Kd (HLA-A*02:01 [13]) was ≥ 20 µM and the Kd (HLA-B*27:05) was ≥ 20 µM. For the same sequence, the Kd (HLA-A*24:03) was ≥ 20 µM, the Kd (HLA-A*69:01) was ≥ 20 µM and the Kd (HLA-A*01:01 [14]) was 0.0817 µM. The Kd (HLA-A*31:01) was ≥ 20 µM, the Kd (HLA-A*03:01) was ≥ 20 µM and the Kd (HLA-B*15:01 [15]) was ≥ 20 µM.
In the case of YDEDNPYKTW, the Kd (HLA-B*44:02 [5]; [21]) is reported as 0.47 µM.
For YYCKSHKPPI, the Kd (HLA-A*23:01; [20]) was 0.207 µM, the Kd (HLA-A*26:01 [2]; [20]) was ≥ 69.7 µM and the Kd (HLA-A*29:02; [20]) was 1.62 µM. The Kd (HLA-A*24:02 [3]; [20]) was 0.193 µM, the Kd (HLA-A*30:02; [20]) was 11.5 µM and the Kd (HLA-A*01:01 [4]; [20]) was ≥ 48.3 µM.
With YYPSARIVY the Kd (HLA-A*23:01; [20]) was ≥ 84.5 µM, the Kd (HLA-A*26:01 [2]; [20]) was 1.37 µM and the Kd (HLA-A*29:02; [20]) was ≥ 88.2 µM. For the same sequence, the Kd (HLA-A*24:02 [3]; [20]) was ≥ 105 µM, the Kd (HLA-A*30:02; [20]) was ≥ 78.9 µM and the Kd (HLA-A*01:01 [4]; [20]) was ≥ 45.5 µM.
